3 molecules from patent US20250092134A1 (Janssen / Centocor, published 2025) can be followed below.

The experiment deals with Vβ17 (on cells expressing Vβ17). Put plainly: cell-based or functional assay.
Vβ17 (on cells expressing Vβ17), sequence (A0A075B6N1 22-114): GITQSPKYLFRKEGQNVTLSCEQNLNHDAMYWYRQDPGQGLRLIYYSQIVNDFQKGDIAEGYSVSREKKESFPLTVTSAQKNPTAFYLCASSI

B1: 20A9A9 (antibody, V domains shown)
VH: EVQLQESGPGLVQPSQSLSITCTVSGFSLTSYGVHWVRQSPGKGLEWLGIIWSAGGTDYNAAFISRLSISKDNSKSQIFFKLNSLHADDTAIYFCARGSFYDYGRLDYWGQGTTLTVSS
VL: DIVMTQSHRFMSTSVGDRVSITCKASQDVSTAVAWYQQKPGQSPKLLIYSSSYRYTGVPDRFTGSGSGTDFTFTISSVQAEDLAVYYCQQHYGTPYTFGGGTKLEIQ
For the molecule B1, the “Cell Internalization (EC50)” value came out at 0.29 nM.

B2: 20C12A3 (antibody, V domains shown)
VH: EVQLQESGAELVRPGTSVKMSCKASGYTFTHYWIDWTKQRPGHGLEWIGNIYPGGGYTNYNENFKGKATLTADKSSSTVFMQFSSLTSDDSAIYYCTRKGYYYGSDWYFDVWGTGTTVTVSS
VL: STSVGDRVSITCKASQDVSTAVAWYHQKPGQSPKLLIYSASYRYTGVPDRFTGSGSGTDFTFTISSVQAEDLAVYYCQQHYTTPYTFGGGTKLEMK
As to B2, the “Cell Internalization (EC50)” value amounted to 0.06 nM.

B3: 23A9B10 (antibody, V domains shown)
VH: EVQLQESGPGLVKPSQSLSLTCSVTGYSITSGYYWNWIRQFLGNKLEWMGYITYDGSNNYNPSLKDRISITRDTSKNQFFLNLNSVTTDDTATYYCARGGGYVPVWGTGTTVTVSS
VL: IQMTQSPAFLSVSPGERVSFSCRASQNIGTSIHWYQQRTNGSPRLLIKYASESISGIPSRFSGSGSGTDFTLSINSVESEDFADYYCHQSHNWPTTFGAGTKLELK
Take B3: the “Cell Internalization (EC50)” value was found to be 15.4 nM.
